Series [1] concerns the molecule itself. As to the kind of experiment: AUC + other: circular dichroism. Background: Circular dichroism is the unequal absorption of left and right circularly polarised light.
Series [2] deals with the molecule itself. As to the kind of experiment: AUC.
Series [3] concerns the molecule itself. Nature of the series: AUC + other: circular dichroism. The source holds these as a separate data set.

Read-outs that look alike come from different tables or passages of the source.

B1: MERS nucleocapsid LRS peptide 197-238 (peptide)
peptide: not shown
B1: the Kd – broadly, a measure of binding affinity in units of concentration – in series [1] came to 110 µM.

B2: 229E-related bat coronavirus nucleocapsid LRS peptide 170-221 (peptide)
peptide: NERLPKSNSKQSNQDDIMAAVAAALEKLGFERPNDASQPQKKQNKGTPKPSR
On to B2, for which the Kd in series [1] amounted to 290 µM.

As for TRSDSNQSSSDLVAAVTLALKNLGFDNQSKSPSSSGT (also called human coronavirus NL63) [NL63 nucleocapsid LRS peptide 174-210], in series [1], the dissociation constant (Kd) was found to be 140 µM. On the same count and under the same terms, to RQPASTVKPDMAEEIAALVLAKLGKDAGQPKQV (also called murine hepatitis virus) [MHV nucleocapsid LRS peptide 223-255] belongs 800 µM. On to MAGNGGDAALALLLLDRLNQLESKMSGKGQQQQGQTV [SARS-CoV-2 N-protein leucine-rich sequence peptide N:210-246 (NLRS)], for which the stoichiometry N – broadly, a count of units in the complex or per binding partner – in series [2] was 3. Besides, in series [3], the Kd was determined as 810 µM. In the case of MASGGGETALALLLLDRLNQLESKVSGKGQQQ [SARS-CoV-1 nucleocapsid LRS peptide 211-242], the Kd in series [1] was 500 µM.
